The values below come from US10184140B2, “Materials and methods for production of bi-functional fatty acids in recombinant bacteria” (IOWA STATE UNIVERSITY RESEARCH FOUNDATION, INC., priority 2013, dated 2019).

Entries after “also recorded” stand apart in the source; their conditions may differ. Where two headings read alike, the source gives them in different places.

Data set [1] can be described thus: Spectrophotometric coupled assay (FabD/FabG, NADPH at 340 nm) of KASIII specific activity with acyl-CoA substrates. The conditions noted are these: for Specific Activity with Isobutyryl-CoA: substrate isobutyryl-CoA.
Procedure: The method comprises (i) incubating holo-ACP, malonyl-CoA, acyl-CoA, NADPH, and malonyl-CoA:ACP transacylase (FabD), (ii) adding KASIII and 3-ketoacyl-ACP reductase (FabG), and (iii) measuring the change in absorbance at 340 nm when NADPH is converted to NADP+ during reduction of 3-ketoacyl-ACP to 3-hydroxyl-acyl ACP by FabG.
Activity of A. acidocaldarius KASIII with different acyl-CoA substrates (acetyl-CoA, isobutyryl-CoA and 3-hydroxybutyryl-CoA (Sigma-Aldrich)) was ascertained by a coupled assay. The assay was performed in 96-well plate format with three replicates for each reaction condition. In a total volume of 100 μl for each reaction the reaction mix containing 100 μM holo-ACP, 200 μM malonyl-CoA, 10 mM DTT, 50 μM acyl-CoA substrate (either acetyl-CoA, isobutyryl-CoA or 3-hydroxy-butyryl-CoA) and 200 μM NADPH in 0.1 M sodium phosphate buffer (pH 7.2) was pre-incubated with 60 μg of FabD for two minutes. The reaction was started by the addition of 30 μg of FabG and varying concentrations of A. acidocaldarius (0.5-15 μg). Change in absorbance of NADPH that was being converted to NADP^+ during reduction of 3-ketoacyl-ACP 3-hydroxy-acyl-ACP by FabG was recorded at 340 nm using a Biotek multi-plate reader.
Spectrophotometric assay was used to assess the activity of A. acidocaldarius KASIII with various acyl-CoA substrates. The assay coupled the appearance of the KASIII-product (3-ketoacyl-ACP) to the oxidation of NADPH, catalyzed by 3-ketoacyl-ACP reductase (FabG).
KASIII enzymatic activity was ascertained via spectrophotometric assay, which coupled the appearance of 3-ketoacyl-ACP to the oxidation of NADPH, using the E. coli FabG protein to reduce 3-ketoacyl-ACP to 3-hydroxyacyl-ACP. The assay was performed in a 96-well plate-format with three technical replicates for each reaction condition. In a total volume of 100 μl for each reaction, the reaction mix contained 100 μM holo-ACP, 200 μM malonyl-CoA, 10 mM DTT, 50 μM acyl-CoA substrate, and 200 μM NADPH in 0.1 M sodium phosphate buffer (pH 7.2). This mixture was pre-incubated with 60 μg of FabD for two minutes to initiate synthesis of malonyl-ACP from malonyl-CoA and holo-ACP. The reaction was then started by the addition of 30 μg of FabG and varying concentrations of KASIII enzyme (0.5-15 μg). As KASIII catalysed the condensation of acyl-CoA with malonyl-ACP to form 3-ketoacyl-ACP, FabG reduced the 3-ketoacyl-ACP intermediate to 3-hydroxy-acyl ACP in the presence of NADPH.
The format of data set [2] is binding. The conditions noted are these: ligand in 50-fold molar excess, relative to water control.
In data set [3] the test system is B. subtilis ΔyjaXΔyhfB mutant strain. In words: Genetic complementation of B. subtilis ΔyjaXΔyhfB double mutant with KASIII genes. The following applies: grown without exogenous branched-chain fatty acids, IPTG induced.
Procedure: Genetic complementation of the B. subtilis ΔyjaXΔyhfB double mutant strain with aaKASIII, taKASIII or ecKASIII expression vectors was conducted using pUCB-erm-derived plasmids carrying the different KASIII ORF sequences. In these vectors each of the different KASIII ORFs were under the control of the Pspac promoter and were inserted between the downstream and upstream DNA fragments of the 135-bp ORF in the ΔyhfB allele of the ΔyjaXΔyhfB::erm double mutant.
The B. subtilis ΔyjaXΔyhfB mutant strain was used as a vehicle to screen for KASIII enzymes that can utilize branched-chain acyl-CoA substrates and can therefore synthesize branched-chain fatty acids, thereby rescuing the lethal ΔyjaXΔyhfB deletion phenotype. […] The resulting three B. subtilis ΔyjaXΔyhfB mutant strains, each expressing one of the recombinant KASIII genes (due to the inclusion of the inducer IPTG in the media), were grown in the absence of exogenously supplied branched-chain fatty acids.
A short description of data set [4]: Kinetic parameters of aaKASIII and ecKASIII (spectrophotometric enzyme assay). Format: biochemical. On the procedure: Therefore, aaKASIII was assayed with 3-hydroxybutyryl-CoA as a substrate, and its specific activity was determined using an in vitro spectrophotometric enzyme assay. KASIII enzyme assays were carried out spectrophotometrically using 400 μM ACP, 400 μM malonyl-CoA, 10-400 μM various acyl-CoAs, 400 μM NADPH, 1 mM DTT, 6 mg/ml FabD, 1.5 mg/ml FabG, and either 4 mg/ml of aaKASIII or 9.5 mg/ml of ecKASIII. The specific activity for this reaction catalysed by aaKASIII was 5-fold and 3-fold higher with isobutyryl-CoA and 3-hydroxybutyryl-CoA, respectively, than that obtained with acetyl-CoA.

A short description of data set [5]: Melting temperatures (Tm) of KASIII enzymes without ligand. The format is physicochemical. The following applies: in water, no ligand, baseline Tm.
Data set [6] is described as follows: Saturation Transfer Difference NMR of KASIII enzymes with acetyl-CoA or isobutyryl-CoA. The format is binding. On the procedure: NMR experiments were performed at 25° C. on a Bruker AV700 MHz spectrometer equipped with a 5 mm HCN cryoprobe. Samples for STD NMR experiments were prepared in 0.1 M sodium phosphate buffer (pH 7.4) with 5% D2O. The protein/ligand ratio was set as 1:100 with KASIII concentration in the 20-25 μM range. Saturation was applied as CW pulse with a power of 58-60 Hz, with on-resonance pulses at 0.62 ppm and 6.86 ppm for upfield and downfield, respectively. The off-resonance pulse was applied at 45 ppm. 3-9-19 WATERGATE suppression was used with a T1-ρ filter. Saturation time of five seconds with an additional delay of 5.1 seconds was used. A set of three replicates was acquired, with 32 scans in each replicate, for each STD NMR experiment of KASIII wild-type or mutated enzyme with a ligand, which was either acetyl-CoA or isobutyryl-CoA (Sigma-Aldrich, St. Louis, Mo.). The reference and the saturated spectra were obtained in an interleaved manner. Resonance assignments of 1H NMR spectra of free ligands were completed using ID 1H and COSY.
Control experiments were carried out by applying on- and off-resonance saturation pulses either to the ligand in the absence of protein, or to the ligand in the presence of denatured protein.
Relative STD effects (ASTD) were calculated according to the equation ASTD=(Io−Isat)/Io where Isat is the signal intensity of the saturated spectrum and Io is the signal intensity of the reference spectrum (Mayer et al., J. Am. Chem. Soc. 123: 6108-6117 (2001)). STD amplification factor was calculated according to the equation: STDaf=ASTD×molar ligand excess.
STD NMR experiments elucidated interactions of these purified enzymes (both wild-type and mutated) with straight-chain substrate (acetyl-CoA) and branched-chain substrate (isobutyryl-CoA) and enabled mapping of binding epitopes on the two substrates. Relative saturation transfer to each of the binding epitopes was measured and converted to the STD amplification factor (STDaf), which is an indicator of ligand binding (Mayer et al., J. Am. Chem. Soc. 123: 6108-6117 (2001)). Ligand epitopes with high STDaf values are assumed to receive higher saturation transfer from the enzyme, and thus are in close contact with the enzyme.

The test system of data set [7] is B. subtilis FabH deletion mutant. As to the kind of experiment: Fatty acid production by recombinant KASIII in B. subtilis FabH deletion mutant. The format is cell-based. The conditions noted are these: B. subtilis FabH deletion mutant rescued by the recombinant KASIII.

Turning to “E. coli KASIII Wild-type: E. coli 3-ketoacyl-ACP synthase III encoded by fabH, GenBank AAG55837.1, amino acid sequence SEQ ID NO:62”, the “Specific Activity with Acetyl-CoA” value in data set [1] (substrate acetyl-CoA, n.d. = not detectable) stood at 447 ± 68 nmol/min/mg. Besides, in data set [1] (n.d. = not detectable), the “Specific Activity with Isobutyryl-CoA” value worked out at 36 ± 14 nmol/min/mg. Moreover, in data set [2] (listed as ecKASIII), the “Thermal shift: increase in Tm with acetyl-CoA” value was “bound; also recorded: positive thermal shifts” and the “Thermal shift: increase in Tm with propionyl-CoA” value is reported as “bound; also recorded: positive thermal shifts”. In data set [3], the “Rescue of the lethal phenotype of the B. subtilis ΔyjaXΔyhfB mutant strain” value is on record as “could not”. For the same molecule, in data set [4] (substrate 3-OH-butyryl-CoA), the “Kinetic parameters (whole line)” value is given as “not a substrate”. In data set [4] (substrate acetyl-CoA), the Km came out at 96.8 ± 4.7 µM, the “Specific Activity” value worked out at 447 ± 68 nmol/mg/min, the maximal velocity (Vmax) amounted to 0.00033 ± 1e-05 µmol/s and the kcal came out at 0.0214 ± 0.00093 s⁻¹. Further, the “Kinetic parameters (whole line)” value in data set [4] (substrate isobutyryl-CoA) is “not a substrate”. Besides, the “Melting temperature (Tm) without ligand” value in data set [5] is 55.0 ± 0.18 °C. Besides, the “Melting temperature (Tm) without ligand” value in data set [5] (listed as ecKASIII) was approximately 55.0 °C. Further, in data set [6] (protein/ligand 1:100, 25° C.), the “STD amplification factor (STDaf), HAP proton of acetyl-CoA” value is on record as approximately 6.0; the “STD amplification factor (STDaf), HB proton of isobutyryl-CoA” value is recorded as approximately 4.0; the “STD amplification factor (STDaf), HT proton of acetyl-CoA” value was approximately 5.0; the “STD amplification factor (STDaf), HT proton of isobutyryl-CoA” value is listed as 2.5.

B1: KASIII from Bacteroides vulgatus: KASIII from Bacteroides vulgatus, GenBank ABR38167.1 (protein, UniProt A6KXK3 1-334, looked up)
Beta-ketoacyl-[acyl-carrier-pr …: MEKINAVITGVGGYVPDYVLTNEEISRMVDTNDEWIMTRIGVKERRILNEEGLGTSYMARKAAKQLMQKTASNPDDIDAVIVATTTPDYHFPSTASILCDKLGLKNAFAFDLQAACCGFLYLMETAASLIASGRHKKIIIVGADKMSSMVNYQDRATCPIFGDGAAACMVEATTEDYGIMDSILRTDGKGLPFLHMKAGGSVCPPSYFTVDHKMHYLYQEGRTVFKYAVSNMSDITATIAEKNGLNKDNIDWVIPHQANLRIIDAVASRLEVPLEKVMINIQRYGNTSGATLPLCLWDYEKQLKKGDNLIFTAFGAGFTYGAVYVKWGYDGSKR
As to B1, the “Substrate preference in the spectrophotometric assay” value in data set [1] (acetyl-CoA, isobutyryl-CoA and 3-hydroxybutyryl-CoA tested) was “higher preference for isobutyryl-CoA and 3-hydroxybutyryl-CoA as compared to acetyl-CoA”. Further, in data set [7], the “Fatty acid content: Anteiso-fatty acids” value is on record as 70.43 mole %, the “Fatty acid content: Even-number iso-fatty acids” value is given as 1.73 mole %, the “Fatty acid content: Even-number normal fatty acids” value is 9.51 mole % and the “Fatty acid content: Odd-number iso-fatty acids” value came to 18.24 mole %. Moreover, in data set [7], the “Fatty acid content: Odd-number normal fatty acids” value turned out to be 0.09 mole %.

B2: B. subtilis KASIIIa M213L: B. subtilis KASIIIA single mutant M213L, amino acid sequence SEQ ID NO:122 (protein)
chain: MKAGILGVGRYIPEKVLTNHDLEKMVETSDEWIRTRTGIEERRIAADDVFSSHMAVAAAKNALEQAEVAAEDLDMILVATVTPDQSFPTVSCMIQEQLGAKKACAMDISAACAGFMYGVVTGKQFIESGTYKHVLVVGVEKLSSITDWEDRNTAVLFGDGAGAAVVGPVSDDRGILSFELGADGTGGQHLYLNEKRHTIMNGREVFKFAVRQLGESCVNVIEKAGLSKEDVDFLIPHQANIRIMEAARERLELPVEKMSKTVHKYGNTSAASIPISLVEELEAGKIKDGDVVVMVGFGGGLTWGAIAIRWGR
modifications: B. subtilis KASIIIA mutant; (213)..(213) methionine at amino acid position 213 replaced with leucine
For the molecule B2, the “Specific Activity with Isobutyryl-CoA” value in data set [1] (n.d. = not detectable) is 156 ± 47 nmol/min/mg. Moreover, in data set [6] (mutant vs wild-type), the “Decrease in STDaf for acetyl-CoA HT proton” value worked out at 40%; the “Decrease in saturation transfer/STDaf for isobutyryl-CoA HT and HB protons in comparison to the wild-type” value is listed as 60-70%.

B3: B. subtilis KASIIIb Wild-type: B. subtilis KASIIIB, bfabHB (yhfB) locus, GenBank CAB12857.1, amino acid sequence SEQ ID NO:66 (protein)
chain: MSKAKITAIGTYAPSRRLTNADLEKIVDTSDEWIVQRTGMRERRIADEHQFTSDLCIEAVKNLKSRYKGTLDDVDMILVATTTSDYAFPSTACRVQEYFGWESTGALDINATCAGLTYGLHLANGLITSGLHQKILVIAGETLSKVTDYTDRTTCVLFGDAAGALLVERDEETPGFLASVQGTSGNGGDILYRAGLRNEINGVQLVGSGKMVQNGREVYKWAARTVPGEFERLLHKAGLSSDDLDWFVPHSANLRMIESICEKTPFPIEKTLTSVEHYGNTSSVSIVLALDLAVKAGKLKKDQIVLLFGFGGGLTYTGLLIKWGM
modifications: B. subtilis
As for B3, the “Specific Activity with Isobutyryl-CoA” value in data set [1] (n.d. = not detectable) came out at 279 ± 8 nmol/min/mg. In data set [2], the “Thermal shift: increase in Tm with 3-hydroxybutyryl-CoA” value is on record as “thermally stabilized”, the “Thermal shift: increase in Tm with butyryl-CoA” value is not below 6 °C, the “Thermal shift: increase in Tm with crotonyl-CoA” value is not below 6 °C and the “Thermal shift: increase in Tm with isobutyryl-CoA” value is not below 6 °C. For the same molecule, in data set [2], the “Thermal shift: increase in Tm with isovaleryl-CoA” value is not below 6 °C, the “Thermal shift: increase in Tm with methylmalonyl-CoA” value was not below 6 °C, the “Thermal shift: increase in Tm with phenylacetyl-CoA” value was not below 6 °C and the “Thermal shift: increase in Tm with propionyl-CoA” value was not below 6 °C. For the same molecule, in data set [2] (listed as bsKASIIIb), the “Thermal shift: increase in Tm with benzoyl-CoA” value is “destabilized the bsKASIIIb protein” and the “Thermal shift: increase in Tm with hexanoyl-CoA” value is given as “destabilized the bsKASIIIb protein”. Moreover, the “Melting temperature (Tm) without ligand” value in data set [5] came out at 48.7 ± 0.24 °C. The “Melting temperature (Tm) without ligand” value in data set [5] (listed as bsKASIIIb) was approximately 48.7 °C.

The term Km denotes the concentration of substrate that gives half-maximal velocity. A word on the Vmax: it is the rate approached at saturating substrate.
